Results on 4 proteins are retold here after PMC6007550 (Nucleic Acids Research, 2018).

This data set concerns the molecule itself. The data set is described as follows: crystal structure.

B1: Sin R54E/I113V catalytic domain (residues 1-128) (domain or fragment, UniProt P20384 1-128, looked up)
chain: MIIGYARVSSLDQNLERQLENLKTFGAEKIFTEKQSGKSIENRPILQKALNFVEMGDRFIVESIDRLGRNYNEVIHTVNYLKDKEVQLMITSLPMMNEVIGNPLLDKFMKDLVIQILAMVSEQERNES
modifications: selenomethionine in place of methionine
Consider B1, for which the “stoichiometry N” value was 4.

B2: Sin R54E/I100T catalytic domain (residues 1-128) (domain or fragment, UniProt P20384 1-128, looked up)
chain: MIIGYARVSSLDQNLERQLENLKTFGAEKIFTEKQSGKSIENRPILQKALNFVEMGDRFIVESIDRLGRNYNEVIHTVNYLKDKEVQLMITSLPMMNEVTGNPLLDKFMKDLIIQILAMVSEQERNES
modifications: selenomethionine in place of methionine
Turning to B2, the “stoichiometry N” value was found to be 4.

B3: Sin R54E/T77I/I100T/Q115R catalytic domain (residues 1-128) (domain or fragment, UniProt P20384 1-128, looked up)
chain: MIIGYARVSSLDQNLERQLENLKTFGAEKIFTEKQSGKSIENRPILQKALNFVEMGDRFIVESIDRLGRNYNEVIHIVNYLKDKEVQLMITSLPMMNEVTGNPLLDKFMKDLIIRILAMVSEQERNES
modifications: selenomethionine in place of methionine
As for B3, the “stoichiometry N” value is 4.

B4: Sin R54E/I100T/Q115R catalytic domain (residues 1-128) (domain or fragment, UniProt P20384 1-128, looked up)
chain: MIIGYARVSSLDQNLERQLENLKTFGAEKIFTEKQSGKSIENRPILQKALNFVEMGDRFIVESIDRLGRNYNEVIHTVNYLKDKEVQLMITSLPMMNEVTGNPLLDKFMKDLIIRILAMVSEQERNES
modifications: selenomethionine in place of methionine
For the protein B4, the “stoichiometry N” value was determined as 4.

One may read the stoichiometry N as the number of molecules, sites or subunits per partner or assembly.
